From article PMC4385409

Target: cytoplasmic dynein-1 heavy chain (bovine) (bovine)
Assay: negative stain EM

With “cytoplasmic dynein-1 heavy chain (bovine) (natural protein)” the stoichiometry N was 2.
